The subject of this data set is Escherichia coli TOP10. As to the kind of experiment: shrunken log2 fold change of peptide-encoding DNA abundance (4.5 h post-induction vs induction); higher = less antimicrobial activity (less host growth inhibition). As to conditions: time post-induction: 4.5 h; library: site-saturation at positions 5, 18, 19, 20.
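Note: peptides expressed intracellularly from a pBAD plasmid library in pooled LB shake-flask culture, induced with 0.3% L-arabinose, DNA abundance read by NGS, three biological replicates, DESeq2 with apeglm shrinkage.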

For RRIRSRPPRLPRPRPRPGLEPRP, the “shrunken log2 fold change” value amounted to 0.00456.
The result for RRIRIRPPRLPRPRPRPDNWPRP reads -0.128; that for RRIRHRPPRLPRPRPRPEYKPRP, -0.467.
For RRIRFRPPRLPRPRPRPTSKPRP, the “shrunken log2 fold change” value was -0.191.
For RRIRHRPPRLPRPRPRPKVVPRP, the “shrunken log2 fold change” value is -0.00398.
Consider RRIRVRPPRLPRPRPRPFVDPRP, for which the “shrunken log2 fold change” value is -0.385.
The figure for RRIRERPPRLPRPRPRPIKEPRP is 0.0101; for RRIRYRPPRLPRPRPRPLRYPRP it is -0.426; for RRIRNRPPRLPRPRPRPLDSPRP it is -0.125.
The result for RRIRFRPPRLPRPRPRPIGVPRP reads -0.0194.
The figure for RRIRMRPPRLPRPRPRPMVRPRP is 0.0591; for RRIRLRPPRLPRPRPRPIAHPRP it is -0.058.
RRIRTRPPRLPRPRPRPQGNPRP: the “shrunken log2 fold change” value is -0.164.
The figure for RRIRMRPPRLPRPRPRPQLTPRP is 0.743; for RRIRIRPPRLPRPRPRPTCDPRP it is -0.369.
The result for RRIRHRPPRLPRPRPRPFEEPRP reads 0.0124; that for RRIRIRPPRLPRPRPRPLGVPRP, -0.0767; that for RRIRDRPPRLPRPRPRPGPDPRP, 0.217.
The figure for RRIRDRPPRLPRPRPRPEWPPRP is 0.209; for RRIRMRPPRLPRPRPRPFPCPRP it is -0.0872; for RRIRKRPPRLPRPRPRPMQIPRP it is -0.0337.
As for RRIRMRPPRLPRPRPRPAAEPRP, the “shrunken log2 fold change” value came out at 2.71.
The result for RRIRWRPPRLPRPRPRPINRPRP reads -0.328; that for RRIRQRPPRLPRPRPRPWRRPRP, 0.241; that for RRIRGRPPRLPRPRPRPVDYPRP, -0.0159.
The figure for RRIRPRPPRLPRPRPRPCKIPRP is -0.0494; for RRIRIRPPRLPRPRPRPWCSPRP it is -0.412; for RRIRSRPPRLPRPRPRPLGFPRP it is 0.0335.
The result for RRIRYRPPRLPRPRPRPHFYPRP reads -0.662; that for RRIRCRPPRLPRPRPRPTTMPRP, 0.722.
In the case of RRIRDRPPRLPRPRPRPRIMPRP, the “shrunken log2 fold change” value was 0.015.
For the sequence RRIRERPPRLPRPRPRPDDRPRP, the “shrunken log2 fold change” value is -0.135.
In the case of RRIRHRPPRLPRPRPRPDHCPRP, the “shrunken log2 fold change” value is 0.0278.
For the sequence RRIRLRPPRLPRPRPRPTVWPRP, the “shrunken log2 fold change” value stood at 0.387.
The figure for RRIRTRPPRLPRPRPRPHFNPRP is -0.556; for RRIRFRPPRLPRPRPRPHNLPRP it is -0.104.
Take RRIRPRPPRLPRPRPRPAYQPRP: the “shrunken log2 fold change” value is -0.0181.
In the case of RRIRSRPPRLPRPRPRPYMAPRP, the “shrunken log2 fold change” value is -0.539.
For RRIRQRPPRLPRPRPRPMQKPRP, the “shrunken log2 fold change” value turned out to be 0.0524.
On to RRIRGRPPRLPRPRPRPIIWPRP, for which the “shrunken log2 fold change” value was determined as 0.392.
The figure for RRIRCRPPRLPRPRPRPKFPPRP is -0.0293; for RRIRNRPPRLPRPRPRPKIPPRP it is -0.255.
The result for RRIRQRPPRLPRPRPRPLWKPRP reads -0.0262.

These data come from the supplement of paper PMC9112550, “Optimization of the antimicrobial peptide Bac7 by deep mutational scanning” (BMC Biology, 2022).
